Assay results taken from paper PMC6172241, “A multisubstrate reductase from Plantago major: structure-function in the short chain reductase superfamily” (Scientific Reports, 2018).

Target: PmMOR (Plantago major multisubstrate oxido-reductase) (Plantago major)
Experiment: SEC; Superdex 200, 20 mM Tris pH 8.0, 100 mM NaCl, 1 mM TCEP; oligomeric state judged from the elution volume

In the case of “PmMOR (Plantago major multisubstrate oxido-reductase) (enzyme)”, the stoichiometry N is reported as 2.
